Experiment [1] concerns the target T1, human CD38 (human, UniProt P28907 1-300).
T1 construct: whole, on cells; also called full-length human CD38
Put plainly: flow cytometry on live U266-CD38+ cells, PE anti-human IgG-Fc detection. Background: A flow cytometer gives signals particle by particle.

The target of experiment [2] is T1, human CD38. Put plainly: flow cytometry on live H929 cells, PE anti-human IgG-Fc detection.

B1: daratumumab (antibody, V domains shown)
VH: EVQLLESGGGLVQPGGSLRLSCAVSGFTFNSFAMSWVRQAPGKGLEWVSAISGSGGGTYYADSVKGRFTISRDNSKNTLYLQMNSLRAEDTAVYFCAKDKILWFGEPVFDYWGQGTLVTVSS
VL: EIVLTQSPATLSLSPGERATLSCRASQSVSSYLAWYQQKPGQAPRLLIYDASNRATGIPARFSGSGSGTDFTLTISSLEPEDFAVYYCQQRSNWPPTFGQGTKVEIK
For B1, the EC50 is 0.13 nM in the experiment with human CD38 [1] and 1.02 nM with human CD38 [2].

What is called EC50 is the concentration at which the effect is half-maximal. Higher therefore signals lower potency in that assay.

The values above are taken from patent publication US20240342298A1 (IMMUNWORK, published 2024).
